Tests used:
PSMA on PSMA+CHO cells = PSMA on PSMA+CHO cells (UniProt Q04609 1-750, limits assumed); assay: cell-based or functional assay
[1] = target: T1, biotinylated PSMA extracellular domain recombinant protein (Acrobiosystems) (Homo sapiens (Human), UniProt Q04609 44-750, biotinylated); assay: capture ELISA, curve fit in GraphPad Prism
T1 construct: Bought reagent
Procedure: (§1) Goat anti-human-IgG1 (Fc specific) (Jackson ImmunoResearch Laboratories, Inc, Pennsylvania, USA) was coated on wells of ELISA plate in 100 μl PBS at the concentration of 3 μg/ml, 4° C. overnight. The wells were washed twice with 200 μl PBST (PBS, pH7.4, containing 0.05% Tween 20) and then blocked with 400 μl PBS™ (PBST containing 5% dry milk) for 2 h at room temperature. Three-fold serially diluted PSMAb and PSMAbLm starting from 6 nM down to 0.1 pM in 50 μl PBS™ were then incubated with the wells respectively for 1 h at room temperature. After 6 washes with PBST, the wells were incubated with 50 μl biotinylated PSMA extracellular domain recombinant protein (Acrobiosystems, Delaware, USA) at the concentration of 0.5 μg/ml in PBS™ for 1 h at room temperature. After incubation, the wells were washed 6 times using PBST and incubated with 50 μl 1:1000 diluted streptavidin-HRP (BD bioscience, California, USA) in PBS™. After final 6 washes with PBST, colorimetric signals were developed by incubation with 70 μl 3, 3′, 5, 5′-tetramethylbenzidine (TMB, eBioscience, CA, USA) and for 20 min at room temperature, then stopped by incubation with 70 μl 1 M H₂SO₄. The absorbance was measured at 450 nm using a microplate reader (VWR, PA, USA). The binding curves were analyzed using GraphPad Prism 5.0 software.
(§2) CDR3 regions of both heavy and light chains are pivotal for antigen binding. […]

[2] = target: T1, biotinylated PSMA extracellular domain …; assay: capture ELISA
Procedure: as §1, §2

T1 sequence (Q04609 44-750): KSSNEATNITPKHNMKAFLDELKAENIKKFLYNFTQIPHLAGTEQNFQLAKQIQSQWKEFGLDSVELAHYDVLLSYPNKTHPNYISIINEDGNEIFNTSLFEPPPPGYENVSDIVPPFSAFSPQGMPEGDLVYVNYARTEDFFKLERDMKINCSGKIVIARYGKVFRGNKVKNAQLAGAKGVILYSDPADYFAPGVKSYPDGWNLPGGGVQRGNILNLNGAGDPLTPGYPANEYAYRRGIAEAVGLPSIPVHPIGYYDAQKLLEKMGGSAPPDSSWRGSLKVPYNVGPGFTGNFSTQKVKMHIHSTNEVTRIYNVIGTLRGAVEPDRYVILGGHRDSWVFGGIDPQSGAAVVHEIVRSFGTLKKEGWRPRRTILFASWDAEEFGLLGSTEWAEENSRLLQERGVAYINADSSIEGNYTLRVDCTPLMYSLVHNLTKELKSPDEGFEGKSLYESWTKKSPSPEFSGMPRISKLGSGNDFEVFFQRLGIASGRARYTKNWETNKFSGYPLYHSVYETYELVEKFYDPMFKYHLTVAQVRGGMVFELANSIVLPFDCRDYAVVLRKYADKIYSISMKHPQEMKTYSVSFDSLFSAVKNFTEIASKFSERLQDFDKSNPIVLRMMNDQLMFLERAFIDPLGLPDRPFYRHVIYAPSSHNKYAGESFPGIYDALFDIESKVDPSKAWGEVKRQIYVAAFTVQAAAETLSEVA
PSMA on PSMA+CHO cells, sequence (Q04609 whole entry, the tested form may be a part): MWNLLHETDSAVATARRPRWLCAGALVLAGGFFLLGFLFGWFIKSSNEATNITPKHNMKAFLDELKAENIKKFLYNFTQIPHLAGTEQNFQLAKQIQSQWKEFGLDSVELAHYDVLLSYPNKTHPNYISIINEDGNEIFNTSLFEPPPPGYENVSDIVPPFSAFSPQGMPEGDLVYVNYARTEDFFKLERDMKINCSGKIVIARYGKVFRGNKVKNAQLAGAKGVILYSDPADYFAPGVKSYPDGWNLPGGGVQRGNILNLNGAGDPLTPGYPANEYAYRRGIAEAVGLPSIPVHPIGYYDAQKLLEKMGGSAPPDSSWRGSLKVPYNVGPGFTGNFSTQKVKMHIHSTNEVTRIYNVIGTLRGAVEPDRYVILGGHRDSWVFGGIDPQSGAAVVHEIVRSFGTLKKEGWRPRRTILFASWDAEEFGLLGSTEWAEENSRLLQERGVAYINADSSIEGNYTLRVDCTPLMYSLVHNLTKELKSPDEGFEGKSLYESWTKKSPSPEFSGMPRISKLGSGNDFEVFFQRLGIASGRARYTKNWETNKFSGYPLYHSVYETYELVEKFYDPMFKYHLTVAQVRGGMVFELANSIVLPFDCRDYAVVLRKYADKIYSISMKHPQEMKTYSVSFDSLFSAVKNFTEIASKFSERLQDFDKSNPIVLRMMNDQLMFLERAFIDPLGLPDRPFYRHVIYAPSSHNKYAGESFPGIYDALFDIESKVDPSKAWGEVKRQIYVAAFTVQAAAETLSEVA

| Binder | Luciferase signal increase fold (ADCC, CD16-Jurkat reporter cells) at 0 pg/ml antibody (PSMA on PSMA+CHO cells) [fold] | Luciferase signal increase fold (ADCC, CD16-Jurkat reporter cells) at 2.286 pg/ml antibody (PSMA on PSMA+CHO cells) [fold] | Luciferase signal increase fold (ADCC, CD16-Jurkat reporter cells) at 6.859 pg/ml antibody (PSMA on PSMA+CHO cells) [fold] | Luciferase signal increase fold (ADCC, CD16-Jurkat reporter cells) at 20.576 pg/ml antibody (PSMA on PSMA+CHO cells) [fold] | Kd [1] [pM] | fold higher affinity than PSMAb [2] [fold] |
| --- | --- | --- | --- | --- | --- | --- |
| PSMAb (parent anti-PSMA full antibody) (antibody, human IgG1, lambda, V domains shown, IgG1 with lambda constant region; also called PSMAb-WT; PMSAb-WT) VH: EVQLVESGGALAKPGGSLRLSCAASGFTLSGYAMHWVRQAPGKGLEWVAVISYDGSNKYYADSVKGRFTVSRDNSKNTLFLQMNSLRPEDTAVYYCAKGLTWGLGDNDALDIWGPGTTVTVSS VL: QSVLTQPPSVSGAPGQSVIISCTGSSSNIGAGSHVHWYQQVPGTAPKLLIYENTNRPSGVPDRFSGSKSGTSGSLAITGLQPEDEADYYCATWDDSLNGVIFGGGTKATVLG | 1.04 | 18.4 | 30 | 43.1 | 109 |  |
| PSMAbLm (PSMAb with N to S mutation in light chain CDR3) (antibody, human IgG1, lambda, V domains shown, also called PMSAbLm; full antibody from Mut-gy1-2 scFv) VH: EVQLVESGGALAKPGGSLRLSCAASGFTLSGYAMHWVRQAPGKGLEWVAVISYDGSNKYYADSVKGRFTVSRDNSKNTLFLQMNSLRPEDTAVYYCAKGLTWGLGDNDALDIWGPGTTVTVSS VL: QSVLTQPPSVSGAPGQSVIISCTGSSSNIGAGSHVHWYQQVPGTAPKLLIYENTNRPSGVPDRFSGSKSGTSGSLAITGLQPEDEADYYCATWDDSLSGVIFGGGTKATVLG |  |  |  |  | 47.9 | ~2.3 |
| PSMAbLm-AF (afucosylated PSMAb with N=>S mutation in light chain CDR3 region) (antibody, human IgG1, lambda, V domains shown, afucosylated (expressed in Fut8-/- CHO-K1)) VH: EVQLVESGGALAKPGGSLRLSCAASGFTLSGYAMHWVRQAPGKGLEWVAVISYDGSNKYYADSVKGRFTVSRDNSKNTLFLQMNSLRPEDTAVYYCAKGLTWGLGDNDALDIWGPGTTVTVSS VL: QSVLTQPPSVSGAPGQSVIISCTGSSSNIGAGSHVHWYQQVPGTAPKLLIYENTNRPSGVPDRFSGSKSGTSGSLAITGLQPEDEADYYCATWDDSLSGVIFGGGTKATVLG | 1.1 | 38.9 | 56.6 | 54.7 |  |  |
| PSMAb-AF (afucosylated PSMAb) (antibody, human IgG1, lambda, V domains shown, afucosylated (expressed in Fut8-/- CHO-K1)) VH: EVQLVESGGALAKPGGSLRLSCAASGFTLSGYAMHWVRQAPGKGLEWVAVISYDGSNKYYADSVKGRFTVSRDNSKNTLFLQMNSLRPEDTAVYYCAKGLTWGLGDNDALDIWGPGTTVTVSS VL: QSVLTQPPSVSGAPGQSVIISCTGSSSNIGAGSHVHWYQQVPGTAPKLLIYENTNRPSGVPDRFSGSKSGTSGSLAITGLQPEDEADYYCATWDDSLNGVIFGGGTKATVLG | 0.859 | 33 | 52.9 | 55.5 |  |  |
